One series deals with T1, LDH.
T1 construct: gene LDHA
The note with it: read-out: Free enzymes / Km; free enzyme; 1x TBS with 1 mM MgCl2, pH 7.5 (most assays; details in supplement).

The next series concerns T2, MDH.
T2 construct: gene MDH2
Particulars: read-out: Free enzymes / Km; free enzyme; 1x TBS with 1 mM MgCl2, pH 7.5 (most assays; details in supplement).

In series [1] the test system is O=c1ccc2nc3ccc(O[C@@H]4O[C@H](CO)[C@H](O)[C@H](O)[C@H]4O)cc3oc-2c1. The series can be described thus: purified protein. Particulars: free enzyme; kcat not calibrated; conditions in supplement.
Substrate in series [2]: CCn1c(=NN=c2sc3cc(S(=O)(=O)O)ccc3n2CC)sc2cc(S(=O)(=O)O)ccc21
Kind of series: Michaelis-Menten kinetics, plate reader absorbance. It counts as biochemical, Armoracia rusticana. Particulars: free enzyme, 1x TBS with 1 mM MgCl2, pH 7.5 (most assays; details in supplement). The text has this: Michaelis-Menten kinetics, plate reader absorbance on HRP

With `NC(=O)C1=CN([C@@H]2O[C@H](COP(=O)(O)OP(=O)(O)OC[C@H]3O[C@@H](n4cnc5c(N)ncnc54)[C@H](O)[C@@H]3O)[C@@H](O)[C@H]2O)C=CC1` [NADH], the values for the Km in the series with LDH and in the series with MDH were 7.2 ± 1.3 µM and 180 ± 50 µM, respectively.

In the case of β-Gal (Escherichia coli K-12), in series [1], the Km worked out at 58.7 ± 16.0 µM; the kcat (in general, the number of substrate molecules converted per active site and unit of time at saturation) was found to be 8.5 ± 0.6 s⁻¹.

B1: HRP (Armoracia rusticana) (protein)
chain: QLTPTFYDNSCPNVSNIVRDTIVNELRSDPRIAASILRLHFHDCFVNGCDASILLDNTTSFRTEKDAFGNANSARGFPVIDRMKAAVESACPRTVSCADLLTIAAQQSVTLAGGPSWRVPLGRRDSLQAFLDLANANLPAPFFTLPQLKDSFRNVGLNRSSDLVALSGGHTFGKNQCRFIMDRLYNFSNTGLPDPTLNTTYLQTLRGLCPLNGNLSALVDFDLRTPTIFDNKYYVNLEEQKGLIQSDQELFSSPNATDTIPLVRSFANSTQTFFNAFVEAMDRMGNITPLTGTQGQIRLNCRVVNSNS
notes: 44 kDa
Regarding B1, in series [2], the Km is reported as 2,600±400 μM and the kcat was determined as 59 ± 5 s⁻¹.

The values are drawn from publication PMC4749968, “Nanocaged enzymes with enhanced catalytic activity and increased stability against protease digestion” (Nature Communications, 2016).
